Measurements reported in patent publication US20220106398A1 (IGM BIOSCIENCES, published 2022).

T1: human His6-GITR (human, UniProt Q9Y5U5 26-162)
T1 construct: His6-tagged recombinant protein; also called hGITR-His; human GITR-His
T1 sequence: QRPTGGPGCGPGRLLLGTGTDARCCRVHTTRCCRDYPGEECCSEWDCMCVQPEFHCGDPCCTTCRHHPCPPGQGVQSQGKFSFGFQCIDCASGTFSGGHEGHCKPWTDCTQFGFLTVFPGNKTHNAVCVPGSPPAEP

T2: mouse His6-GITR (mouse, UniProt O35714 20-153)
T2 construct: His6-tagged recombinant protein; also called mGITR-His; mouse GITR-His
T2 sequence: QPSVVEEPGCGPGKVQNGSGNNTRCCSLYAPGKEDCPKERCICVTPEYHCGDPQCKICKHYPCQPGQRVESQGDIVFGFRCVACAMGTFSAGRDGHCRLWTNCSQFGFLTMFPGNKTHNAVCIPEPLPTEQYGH

T3: cynomolgus monkey His6-GITR (cynomolgus monkey)
T3 construct: His6-tagged recombinant protein; also called cGITR-His; cyno GITR-His
T3 chain: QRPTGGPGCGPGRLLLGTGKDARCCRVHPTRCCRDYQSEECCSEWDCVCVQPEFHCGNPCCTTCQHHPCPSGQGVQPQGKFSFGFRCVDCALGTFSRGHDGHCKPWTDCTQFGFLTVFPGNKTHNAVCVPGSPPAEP


What was measured:
[1] = target: T1, human His6-GITR; assay: CARTERRA LSA, scFv periplasmic extract
[2] = target: T2, mouse His6-GITR; assay: ELISA, scFv periplasmic extract on coated His6-GITR
Protocol: (§1) The SuperHuman-2.0 scFv Antibody Library (available from Distributed Bio, South San Francisco, Calif.) was used to perform selection with human, cynomolgus or mouse GITR proteins. Selected phage clones from overnight growth were inoculated into wells in 96 well deep well plates containing 1 mL of medium. scFv expression was induced by addition of IPTG (Teknova) to a final concentration of 1 mM. Plates were grown overnight after induction. To prepare periplasmic extracts (PPE), the plates containing the phage clones were centrifuged at 2500 rpm for 10 min, the supernatant discarded and then pellets treated with 75 μL of cold periplasmic extract buffer with appropriate concentration of protease inhibitors (Complete Mini, EDTA-free -Roche Applied Biosciences—Cat No 1836170). After shaking at room temperature for 10 min, 225 μL of cold ddH2O with added protease inhibitor (1 tablet/50 mL) was added per well and mixed by pipetting up and down. PPE extraction was completed by incubation at room temperature for an additional 1 hr. The plates were then centrifuged at 4000 rpm for 20 minutes and 200 μL of PPE supernatant was collected from each well and transferred to a new plate which was then blocked with equal volume of 4% milk (2% final) to prepare blocked PPE extracts. In the meantime, Maxisorp plates (Nunc 442404) coated with relevant antigen (human, mouse or cynomolgus monkey His6-GITR) at 50 μl/well of 1 μg/mL antigen or 2% BSA in PBS as control were prepared for ELISA analyses. Next, 50 μL of each blocked PPE extract was transferred to the pre-blocked ELISA plates coated with the relevant antigens. After incubation and washing 3× with PBS, 50 μL of anti-V5 tag antibody (tag included in the phage display constructs, Invitrogen Cat No R960-25) at 1:5000 dilution in 2% milk was added and the plates were incubated for 1 hr. […] After further washing 3× with PBST, 50 μl/well of TMB substrate was added and the plates were developed until positive controls were visible. The reaction was stopped with 50 μl/well of 2N H2SO4. Plates were read at 450 nm to determine ELISA signal from bound PPE derived scFv.

[3] = target: T3, cynomolgus monkey His6-GITR; assay: as above
Protocol: as §1

[4] = target: T1, human His6-GITR; assay: as above
Protocol: as §1

Row | Binder | Kd [1] [nM] | mGITR-His/BKG [2] [fold over background] | cGITR-His/BKG [3] [fold over background] | hGITR-His/BKG [4] [fold over background]
1 | GITR-Mab-9 scFv (scFv, V domains shown, scFv in periplasmic extract, V5 tag) VH: QVQLVQSGAEVKKPGASVKVSCKASGHTFTSQYMHWVRQAPGQGLEWVGVINPNDGSTSYAQKFQGRVTMTRDTSTSTVYMELSSLRSEDTAVYYCARDGAYYYDSSGYYRSSNFDYWGQGTLVTVSS VL: DIQMTQSPSSLSASVGDRVTITCQASQDIGNYLNWYQQKPGKAPKLLIYGASNLETGVPSRFSGSGSGTDFTLTISSLQPEDFATYYCQQGYSFPLTFGQGTKVEIK | 3.3 | 1.1 | 11.6 | 12.8
2 | GITR-Mab-14 scFv (scFv, V domains shown, scFv in periplasmic extract, V5 tag) VH: EVQLLESGGGLVKPGGSLRLSCAASGFRFSVYWMSWVRQAPGKGLEWVSGISGSGGTTYYADSVKGRFTISRDDSKNTLYLQMNSLKTEDTAVYYCARVRRDGYNYNFDYWGQGTLVTVSS VL: DIQMTQSPSSLSASVGDRVTITCQASQDISNYLNWYQQKPGKAPKLLIFDASSLEAGVPSRFSGSGSGTDFTLTISSLQPEDFATYYCQQANSFPPTFGQGTEVEIK | 30.3 | 0.9 | 11.5 | 34
3 | GITR-Mab-13 scFv (scFv, V domains shown, scFv in periplasmic extract, V5 tag) VH: QVQLVQSGAEVKKPGSSVKVSCKASGGTFSSYAISWVRQAPGQGLEWMGGIVPMLGSPHYAQKFQGRVTITADESTSTAYMELSSLRSEDTAVYYCARGSWLVADFQHWGQGTLVTVSS VL: not shown | 2.6 | 1.1 | 9.4 | 25.4
4 | GITR-Mab-12 scFv (scFv, V domains shown, scFv in periplasmic extract, V5 tag) VH: QVQLVQSGAEVKKPGASVKVSCKASGYTFTSYAINWVRQAPGQGLEWMGILSPSGGGTSYAPKFQGRVTMTRDTSTSTVYMELSSLRSEDTAVYYCARGPWYFDLWGRGTLVTVSS VL: DIQMTQSPSSLSASVGDRVTITCRASQGISNSLAWYQQKPGKAPKLLIYAASSLQSGVPSRFSGSGSGTDFTLTISSLQPEDFATYYCQQSYSTPFTFGPGTKVDIK | 7.5 | 1 | 16.9 | 37.8
5 | GITR-Mab-16 scFv (scFv, V domains shown, scFv in periplasmic extract, V5 tag) VH: QVQLVQSGAEVKKPGASVKVSCKASGGTLSSYAISWVRQAPGQGLEWMGWIDPNSGGTNYAQKFQGRVTMTRDTSTSTVYMELSSLRSEDTAVYYCARQGLLWFGESGSIYYYYGMDVWGQGTTVTVSS VL: DIQMTQSPSSLSASVGDRVTITCRASRSISNYLNWYQQKPGKAPKLLIYGASSLQSGVPSRFSGSGSGTDFTLTISSLQPEDFATYYCQQSYSTLVTFGQGTKVEIK | 0.8 | 0.8 | 21.6 | 24.1
6 | GITR-Mab-24 scFv (scFv, V domains shown, scFv in periplasmic extract, V5 tag) VH: QVQLVQSGAEVKKPGASVKVSCKASGGTFNNYAINWVRQAPGQGLEWMGTINPRDGDTTYAQKFQGRVTMTRDTSTSTVYMELSSLRSEDTAVYYCARVGYYGSGSYYSYYGMDVWGQGTTVTVSS VL: DIQMTQSPSSLSASVGDRVTITCRASQNITNWLAWYQQKPGKAPKLLIYAASSLQSGVPSRFSGSGSGTDFTLTISSLQPEDFATYYCQQAYSFPWTFGQGTKVEIK | 38.9 | 1.7 | 5.7 | 19
7 | GITR-Mab-22 scFv (scFv, V domains shown, scFv in periplasmic extract, V5 tag) VH: QVQLVQSGAEVKKPGASVKVSCKASGGRFSTYALSWVRQAPGQGLEWMGIINPTDGSTTYAQKFQGRVTMTRDTSTSTVYMELSSLRSEDTAVYYCARDVYSSSWYSDYWGQGTLVTVSS VL: DIQMTQSPSSLSASVGDRVTITCRASQSISNWLAWYQQKPGKAPKLLIYAASTLQSGVPSRFSGSGSGTDFTLTISSLQPEDFATYYCQQSYSVPFTFGPGTKVDIK | 2.3 | 1.2 | 23.3 | 25.7
8 | GITR-Mab-2 scFv (scFv, V domains shown, scFv in periplasmic extract, V5 tag) VH: QVQLVQSGAEVKKPGSSVKVSCKASGYRFTGYHLHWVRQAPGQGLEWMGGIIPIFGTANYAQKFQGRVTITADKSTSTAYMELSSLRSEDTAVYYCAYGVPPDPWGQGTLVTVSS VL: not shown | 16.3 | 1.1 | 25.2 | 20.1
9 | GITR-Mab-11 scFv (scFv, V domains shown, scFv in periplasmic extract, V5 tag) VH: QVQLVQSGAEVKKPGASVKVSCKASGGTFSNYGISWVRQAPGQGLEWMGIINPTDGSTTYAQKFQGRVTMTRDTSTSTVYMELSSLRSEDTAVYYCARWWGSGWSWYFDLWGRGTLVTVSS VL: not shown | 1.4 | 1.1 | 15.6 | 21.8

Continued, values first:

Row | Kd [1] [nM] | mGITR-His/BKG [2] [fold over background] | cGITR-His/BKG [3] [fold over background] | hGITR-His/BKG [4] [fold over background] | Binder
10 | 7.8 | 1.1 | 15.3 | 24.7 | GITR-Mab-20 scFv (scFv, V domains shown, scFv in periplasmic extract, V5 tag) VH: QVQLVQSGAEVKKPGASVKVSCKASGGTFSNYAISWVRQAPGQGLEWMGVINPRGGSTTYAQKFQGRVTMTRDTSTSTVYMELSSLRSEDTAVYYCARDYSIPYYGMDVWGQGTTVTVSS VL: DIQMTQSPSSLSASVGDRVTITCRASQSISTYLNWYQQKPGKAPKLLIYDASNLETGVPSRFSGSGSGTDFTLTISSLQPEDFATYYCQQSYSTPLTFGGGTKVEIK
11 | 5.3 | 1.1 | 29.4 | 34.2 | GITR-Mab-10 scFv (scFv, V domains shown, scFv in periplasmic extract, V5 tag) VH: QVQLVQSGAEVKKPGASVKVSCKASGYTFTSNYMHWVRQAPGQGLEWMGWMNPNSGNTAYAQKFQGRVTMTRDTSTSTVYMELSSLRSEDTAVYYCARGRGGQLLFDYWGQGTLVTVSS VL: DIQMTQSPSSLSASVGDRVTITCRASQGISSWLAWYQQKPGKAPKLLIYAASTLQSGVPSRFSGSGSGTDFTLTISSLQPEDFATYYCQQYNSYSTFGQGTKVEIK
12 | 2.9 | 1.2 | 21.2 | 13.5 | GITR-Mab-21 scFv (scFv, V domains shown, scFv in periplasmic extract, V5 tag) VH: EVQLLESGGGLVQPGGSLRLSCAASGFTFSNHYMSWVRQAPGKGLEWVAVIALDGSYRYYADSVKGRFTISRDNSKNTLYLQMNSLRAEDTAVYYCARVGPGGMDVRGQGTTVTVSS VL: DIQMTQSPSSLSASVGDRVTITCQASQDISNYLNWYQQKPGKAPKLLIYAASSLQSGVPSRFSGSGSGTDFTLTISSLQPEDFATYYCQQSYNSPRVYTFGQGTKVEIK
13 | 52.1 | 1.2 | 12.3 | 11.4 | GITR-Mab-15 scFv (scFv, V domains shown, scFv in periplasmic extract, V5 tag) VH: QVQLVQSGAEVKKPGSSVKVSCKASGFTFTTSAVQWVRQAPGQGLEWMGGIIPIFGTANYAQKFQGRVTITADESTSTAYMELSSLRSEDTAVYYCAKGSGYEFPGGSEYFQHWGQGTLVTVSS VL: not shown
14 | 10.8 | 1.3 | 24.6 | 10 | GITR-Mab-19 scFv (scFv, V domains shown, scFv in periplasmic extract, V5 tag) VH: QVQLVQSGAEVKKPGASVKVSCKASGYTFTSYDINWVRQAPGQGLEWVGIINPSGGSTSYAQKFQGRVTMTRDTSTSTVYMELSSLRSEDTAVYYCARASSGGYYYYYGMDVWGQGTTVTVSS VL: DIQMTQSPSSLSASVGDRVTITCRASQDIVNWLAWYQQKPGKAPKLLIYAASSLQSGVPSRFSGSGSGTDFTLTISSLQPEDFATYYCQQYYSYPLTFGQGTRLEIK
15 | 1 | 1 | 17.7 | 17.9 | GITR-Mab-18 scFv (scFv, V domains shown, scFv in periplasmic extract, V5 tag) VH: EVQLLESGGGLVKPGGSLRLSCAASGFTFSSYWMSWVRQAPGKGLEWVSGISWNGGTVGYADSVKGRFTISRDDSKNTLYLQMNSLKTEDTAVYYCAKLGIAVKSHWYFDLWGRGTLVTVSS VL: DIQMTQSPSSLSASVGDRVTITCRASESISTWLAWYQQKPGKAPKLLIYAASSLQSGVPSRFSGSGSGTDFTLTISSLQPEDFATYYCQQSYTLPLTFGGGTKLEIK
